Among the data in publication PMC5892879, “Structures of the Mycobacterium tuberculosis GlpX protein (class II fructose-1,6-bisphosphatase): implications for the active oligomeric state, catalytic mechanism and citrate inhibition” (Acta Crystallographica. Section D, Structural Biology, 2018) are stoichiometry N values, retold here.

In general, stoichiometry N refers to the number of molecules, sites or subunits per partner or assembly.

Holding throughout (assay): crystal structure
Assay [1] addresses Mycobacterium tuberculosis class II fructose-1,6-bisphosphatase (GlpX protein), T84A variant (Mycobacterium tuberculosis) (UniProt P9WN21).
Assay [2] addresses Mycobacterium tuberculosis class II fructose-1,6-bisphosphatase (GlpX protein), T84S variant (Mycobacterium tuberculosis) (UniProt P9WN21).
Assay [3] has as its target Mycobacterium tuberculosis class II fructose-1,6-bisphosphatase (GlpX protein), wild type (Mycobacterium tuberculosis) (UniProt P9WN21).

In assay [1], “Mycobacterium tuberculosis class II fructose-1,6-bisphosphatase (GlpX protein), T84A variant (from UniProt P9WN21) (enzyme)” displayed a stoichiometry N of 4. “Mycobacterium tuberculosis class II fructose-1,6-bisphosphatase (GlpX protein), T84S variant (from UniProt P9WN21) (enzyme)”: the stoichiometry N in assay [2] was determined as 4. “Mycobacterium tuberculosis class II fructose-1,6-bisphosphatase (GlpX protein), wild type (from UniProt P9WN21 35-362) (enzyme)”: the stoichiometry N in assay [3] is 4.
